The source of these data is US20220323563A1.

Like-named read-outs stand apart in the source and are kept apart here.

Assay [1] concerns the target Fcγ fragment of human IgG (human). In words: BLI, Ni-NTA sensor, SpA immobilised, Fc fragment of human IgG in solution.
The target is the same in assay [2].
In assay [3] the target is F(ab)2 fragment of human IgG (human).

With “SpA (wild-type protein A, recombinant five IgBDs) (from UniProt P02976 37-327)”, the Ka in assay [1] was 5.17e+07 M⁻¹.

“SpAQ9,10K/S33T (from UniProt P02976 37-327)”: the Ka in assay [2] was found to be 39.9 M⁻¹; in assay [3], 43.5 M⁻¹.

Substance “SpAQ9,10K/G29F/D36,37A (from UniProt P02976 37-327)” gave a human IgE affinity with human IgE of 2.02e-05.

Consider “SpAQ9,10K/S33E (from UniProt P02976 37-327)”, for which the Ka in assay [2] stood at 32.7 M⁻¹; in assay [3], 41.2 M⁻¹.
